# Experimental data taken from patent US20160297851A1 (Scripps Research, published 2016).
# Read-outs that look alike come from different tables or passages of the source.
# Experiments:
# [1] = molecular target: T1, detergent-solubilized full-length wild type E. coli SPase (His6x-tagged) (Escherichia coli, UniProt P00803 1-324); test: steady-state increase of arylomycin fluorescence (ex 320 nm, em 410 nm) on binding detergent-solubilised full-length wild type E. coli SPase
# T1 construct: Plasmid pET23-lepB came from Dr. Mark Paetzel; also called full-length Pro-variant of E. coli SPase; full length His-tagged E. coli SPase; not shown: His6x tag of plasmid pET23-lepB
# [2] = molecular target: E. coli MG1655 SPase (LepB) P84L, in the bacteria (E. coli, UniProt P00803 1-324); test: cell-based or functional assay
# [3] = molecular target: T2, S. aureus NCTC 8325 SPase (SpsB), wild type, in the bacteria (Staphylococcus aureus); test: cell-based or functional assay
# [4] = molecular target: T3, Staphylococcus epidermidis RP62A signal peptidase IB, wild type (Staphylococcus epidermidis); test: cell-based or functional assay
# T3 chain: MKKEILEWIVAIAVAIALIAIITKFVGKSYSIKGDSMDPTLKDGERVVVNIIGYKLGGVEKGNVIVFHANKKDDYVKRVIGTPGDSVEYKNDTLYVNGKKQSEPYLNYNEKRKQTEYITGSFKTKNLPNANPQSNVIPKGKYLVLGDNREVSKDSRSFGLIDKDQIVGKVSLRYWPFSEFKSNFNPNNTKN
# [5] = molecular target: T4, Staphylococcus epidermidis signal peptidase IB S29P (strain PAS9001) (Staphylococcus epidermidis); test: cell-based or functional assay
# T4 chain: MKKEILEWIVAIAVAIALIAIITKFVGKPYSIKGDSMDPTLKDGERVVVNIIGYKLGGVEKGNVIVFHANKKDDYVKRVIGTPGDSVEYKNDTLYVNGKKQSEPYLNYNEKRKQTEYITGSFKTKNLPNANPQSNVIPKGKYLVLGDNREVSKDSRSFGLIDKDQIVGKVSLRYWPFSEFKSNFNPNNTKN
# [6] = molecular target: T5, P. aeruginosa PAO1 SPase (LepB), wild type, in the bacteria (Pseudomonas aeruginosa, UniProt Q9I5G7 1-284); test: cell-based or functional assay
# T5 sequence: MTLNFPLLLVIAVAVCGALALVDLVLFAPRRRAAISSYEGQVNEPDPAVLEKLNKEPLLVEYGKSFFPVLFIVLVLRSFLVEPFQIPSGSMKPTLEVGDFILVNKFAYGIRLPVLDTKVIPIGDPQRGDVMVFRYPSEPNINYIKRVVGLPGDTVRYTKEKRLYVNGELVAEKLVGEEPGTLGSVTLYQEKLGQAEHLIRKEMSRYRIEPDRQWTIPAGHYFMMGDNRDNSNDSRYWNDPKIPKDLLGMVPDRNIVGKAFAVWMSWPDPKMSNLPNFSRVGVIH
# [7] = molecular target: T6, S. aureus SPase (SpsB) P29S, strain PAS8001, in the bacteria (Staphylococcus aureus); test: cell-based or functional assay
# [8] = molecular target: T7, E. coli MG1655 SPase (LepB), wild type, in the bacteria (Escherichia coli, UniProt P00803 1-324); test: cell-based or functional assay
# [9] = molecular target: T4, Staphylococcus epidermidis signal …; test: cell-based or functional assay
# [10] = molecular target: T8, Staphylococcus epidermidis signal peptidase IB S31P (strain PAS9002) (Staphylococcus epidermidis); test: cell-based or functional assay
# T8 chain: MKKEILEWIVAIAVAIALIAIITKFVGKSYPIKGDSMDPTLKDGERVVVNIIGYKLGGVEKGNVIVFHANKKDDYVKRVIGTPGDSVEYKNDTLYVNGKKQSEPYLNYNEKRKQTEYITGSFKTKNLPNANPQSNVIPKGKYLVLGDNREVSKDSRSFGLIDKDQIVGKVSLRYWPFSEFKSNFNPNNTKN
# [11] = molecular target: T2, S. aureus NCTC 8325 SPase (SpsB), wild …; test: cell-based or functional assay; remark: listed apart in the source
# [12] = molecular target: T3, Staphylococcus epidermidis RP62A signal …; test: cell-based or functional assay
# [13] = molecular target: T4, Staphylococcus epidermidis signal …; test: cell-based or functional assay
# [14] = molecular target: T5, P. aeruginosa PAO1 SPase (LepB), wild …; test: cell-based or functional assay; remark: listed apart in the source
# [15] = molecular target: T8, Staphylococcus epidermidis signal …; test: cell-based or functional assay
# [16] = molecular target: E. coli SPase (LepB) P84S, strain PAS0232, in the bacteria (Escherichia coli, UniProt P00803 1-324); test: cell-based or functional assay
# [17] = molecular target: T6, S. aureus SPase (SpsB) P29S, strain …; test: cell-based or functional assay; remark: listed apart in the source
# [18] = molecular target: T7, E. coli MG1655 SPase (LepB), wild type, …; test: cell-based or functional assay; remark: listed apart in the source
# [19] = molecular target: T9, P. aeruginosa SPase (LepB) P84S, strain PAS2006, in the bacteria (Pseudomonas aeruginosa, UniProt Q9I5G7 1-284); test: cell-based or functional assay
# T9 sequence: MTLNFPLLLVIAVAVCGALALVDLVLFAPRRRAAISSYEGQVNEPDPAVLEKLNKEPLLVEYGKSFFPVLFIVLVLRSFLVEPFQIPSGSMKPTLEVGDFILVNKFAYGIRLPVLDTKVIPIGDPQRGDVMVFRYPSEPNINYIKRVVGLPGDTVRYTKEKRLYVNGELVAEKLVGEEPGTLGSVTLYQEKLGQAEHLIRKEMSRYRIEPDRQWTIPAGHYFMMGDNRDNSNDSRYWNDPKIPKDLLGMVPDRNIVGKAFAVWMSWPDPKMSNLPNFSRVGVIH
# [20] = molecular target: T1, detergent-solubilized full-length wild …; test: steady-state binding by increase of arylomycin fluorescence; detergent-solubilized full-length His-tagged SPase
# [21] = molecular target: T10, P84S variant of detergent-solubilized full-length E. coli SPase (His6x-tagged) (Escherichia coli, UniProt P00803 1-324); test: as above
# [22] = molecular target: T10, P84S variant of detergent-solubilized …; test: steady-state increase of arylomycin fluorescence (ex 320 nm, em 410 nm) on binding detergent-solubilised full-length E. coli SPase P84S
binder,measurement,setting,value
"SAGXAY (C16 fatty acyl (palmitoyl) tail on the N-terminus of N-methyl-D-Ser2; D-Ala3; N-methyl-4-hydroxyphenylglycine (MeHpg) at 5, written X; biaryl bridge between MeHpg5 and Tyr7 (macrocycle MeHpg5-Ala6-Tyr7); free C-terminal carboxyl; the filing counts the lipid tail as position 1, Synthetic lipohexapeptide derived from the natural product arylomycin A2, with a straight C16 fatty acid tail; It has non-standard and D-residues and is macrocyclic, so it is a borderline case of 'peptide'; also called arylomycin A-C16; Arylomycin A2 C16) [arylomycin C16]",EC50 (read off the curve),[1],~100 nM
same,MIC,[2],0.5 µg/mL
same,MIC,[3],> 64 µg/mL
same,MIC,[4],0.5 µg/mL
same,MIC,[5],8 µg/mL
same,MIC,[6],> 64 µg/mL
same,MIC,[7],2 µg/mL
same,MIC,[8],> 64 µg/mL
same,fold elevation of MIC compared to the wild type strain,[9],32 fold
same,fold elevation of MIC compared to the wild type strain,[10],> 256 fold
same,MIC,[11],> 128 µg/mL
same,MIC,[12],0.25 µg/mL
same,MIC,[13],8 µg/mL
same,MIC,[14],> 128 µg/mL
same,MIC,[15],> 128 µg/mL
same,MIC,[16],2 µg/mL
same,MIC,[17],2 µg/mL
same,MIC,[18],> 128 µg/mL
same,MIC,[19],8 µg/mL
same,Kd,[20],60 nM
same,Kd,[21],5.7 nM
same,EC50 (read off the curve),[22],~10 nM
same,Kd,[22],5.73 nM
